Earlier results in paper PMC9106955.

Target: GLP-1R N-terminal domain (UniProt P43220)
Sequence of UniProt P43220 (P43220 24-145): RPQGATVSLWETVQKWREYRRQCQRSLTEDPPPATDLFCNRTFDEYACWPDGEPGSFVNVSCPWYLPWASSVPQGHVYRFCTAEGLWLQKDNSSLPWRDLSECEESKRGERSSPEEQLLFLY

Exendin-4 (from UniProt P26349)
Kd: 6 nM
